Measured values reported in patent US20210017240A1 (ACCESS BUSINESS GROUP INTERNATIONAL, published 2021).

T1: human recombinant renin (human, UniProt P00797 67-406, limits assumed)
T1 sequence (looked up): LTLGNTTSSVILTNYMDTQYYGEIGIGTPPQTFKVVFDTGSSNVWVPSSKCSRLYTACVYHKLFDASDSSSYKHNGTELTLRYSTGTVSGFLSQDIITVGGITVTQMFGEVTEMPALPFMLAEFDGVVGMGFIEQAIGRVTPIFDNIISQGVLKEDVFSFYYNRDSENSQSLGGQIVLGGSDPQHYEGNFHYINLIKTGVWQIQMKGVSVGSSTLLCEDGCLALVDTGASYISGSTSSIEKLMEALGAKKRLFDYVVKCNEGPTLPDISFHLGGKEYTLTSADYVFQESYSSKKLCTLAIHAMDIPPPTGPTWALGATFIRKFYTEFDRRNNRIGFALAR


Molecular target: T1, human recombinant renin
Assay: cell-based or functional assay

Binder	% Inhibition of renin activity at 1 mg/mL peptide (fluorometric Renin Inhibitor Screening Assay Kit) [%]
SGRDP [isolated peptide 2, SGRDP (Ser-Gly-Arg-Asp-Pro)]	-54.5
TGSYTEGWS [isolated peptide 4, TGSYTEGWS (Thr-Gly-Ser-Tyr-Thr-Glu-Gly-Trp-Ser)]	107
YFVP [isolated peptide 1, YFVP (Tyr-Phe-Val-Pro)]	-40.5
MVWGP [isolated peptide 3, MVWGP (Met-Val-Trp-Gly-Pro)]	-46.4

Molecular target: angiotensin converting enzyme (ACE)
Assay: cell-based or functional assay

Binder	IC50 of in vitro ACE activity inhibition (FAPGG substrate, absorbance at 345 nM) [µg/mL]
SGRDP [isolated peptide 2, SGRDP (Ser-Gly-Arg-Asp-Pro)]	510
TGSYTEGWS [isolated peptide 4, TGSYTEGWS (Thr-Gly-Ser-Tyr-Thr-Glu-Gly-Trp-Ser)]	550
YFVP [isolated peptide 1, YFVP (Tyr-Phe-Val-Pro)]	250
MVWGP [isolated peptide 3, MVWGP (Met-Val-Trp-Gly-Pro)]	21
